According to patent US20240409647A1, “BISPECIFIC BINDING PROTEINS AGAINST ALARMINS AND USES THEREOF” (SINOMAB BIOSCIENCE LIMITED, priority 2022, published 2024):
“And” between values parts separate entries of the source, which are not always exact repeats. Equal values may be shown once.

What was measured:
[1] = target: T1, IL-17RB (Homo sapiens, UniProt Q9NRM6); test: Bio-Layer Interferometry (Octet), SM17 binding kinetics to human IL17RB; conditions: trials 1 and 2
T1 construct: purchased R&D systems
T1 sequence (Q9NRM6 18-502): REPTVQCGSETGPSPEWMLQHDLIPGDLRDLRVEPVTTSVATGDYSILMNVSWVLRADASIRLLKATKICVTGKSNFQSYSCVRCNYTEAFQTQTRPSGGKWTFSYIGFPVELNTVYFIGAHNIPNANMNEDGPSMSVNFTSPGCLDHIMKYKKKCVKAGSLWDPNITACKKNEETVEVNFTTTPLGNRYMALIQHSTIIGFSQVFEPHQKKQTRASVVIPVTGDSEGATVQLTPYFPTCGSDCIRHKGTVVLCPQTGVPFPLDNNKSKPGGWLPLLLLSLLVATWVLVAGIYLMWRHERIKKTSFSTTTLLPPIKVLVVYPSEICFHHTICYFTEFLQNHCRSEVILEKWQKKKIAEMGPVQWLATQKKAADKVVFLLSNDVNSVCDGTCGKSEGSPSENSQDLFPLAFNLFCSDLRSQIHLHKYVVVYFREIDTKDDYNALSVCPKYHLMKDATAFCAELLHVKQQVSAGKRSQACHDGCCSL
Method: Bio-Layer Interferometry analysis (Octet ReD96 system, Sartorius) was employed to determine the binding affinity of SM17 against human and cynomolgus monkey IL17RB protein (R&D systems). Briefly, SM17 (20 μg/mL) was immobilized on biosensors via interactions with anti-human Fab CH1; serially diluted Cyno-IL17RB and Human-IL17RB (at a concentration of 158.7 nM, 79.4 nM and 39.7 nM, respectively) were subsequently added following standard operation protocols of the Octet ReD96 system to plot out the association and dissociation curve. Irrelevant antibody (SM03, anti-human CD22 chimeric IgG1 antibody, SinoMab BioScience Limited) was used as the control reference. Of note, the KD is within picomolar-single digit nanomolar range.

[2] = target: T1, IL-17RB; test: ELISA, antigen binding specificity of bsBp (IL-17RB); set-up: key: −: no binding; +: weak; ++: moderate; +++: strong binding; N/A refers to no binding affinity; conditions: 33.5 nM; antigen coated at 2 μg/mL
Method: Binding specificities of bsBp were evaluated by standard ELISA assays. Briefly, ELISA strips were coated with the respective target antigens, including IL17RB, IL-33, or TSLP (R&D systems) at a final concentration of 2 μg/mL. Bispecific antibodies were added at 33.5 nM to ELISA strips coated with the desired antigen. After incubation under room temperature for 2 hours, ELISA strips were washed five times with PBS. […] No result is provided for SM17-human TSLPR as the yield was too low to be detected.

[3] = target: T2, rhesus IL17RB (Macaca mulatta, UniProt H9FWT9); test: ELISA, SM17 binding to coated IL-17RB protein (rhesus); set-up: species or system rhesus monkey; conditions: two wells
T2 construct: purchased R&D systems
T2 sequence (H9FWT9 18-502): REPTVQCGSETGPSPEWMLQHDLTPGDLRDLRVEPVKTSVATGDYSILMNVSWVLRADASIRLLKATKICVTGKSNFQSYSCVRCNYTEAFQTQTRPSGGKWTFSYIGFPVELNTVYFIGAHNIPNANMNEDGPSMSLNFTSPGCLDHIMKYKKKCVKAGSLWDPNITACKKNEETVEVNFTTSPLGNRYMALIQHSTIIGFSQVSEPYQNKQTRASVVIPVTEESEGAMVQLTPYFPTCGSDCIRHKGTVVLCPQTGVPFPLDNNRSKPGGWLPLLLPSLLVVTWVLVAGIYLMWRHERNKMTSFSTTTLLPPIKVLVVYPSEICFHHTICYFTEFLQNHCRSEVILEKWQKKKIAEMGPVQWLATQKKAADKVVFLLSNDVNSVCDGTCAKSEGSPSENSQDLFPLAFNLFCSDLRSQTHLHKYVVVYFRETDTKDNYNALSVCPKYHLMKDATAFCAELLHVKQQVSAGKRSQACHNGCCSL
Method: (§1) A standard enzyme-linked immunosorbent assay (ELISA) method was used to determine the species specificity of SM17 against IL-17RB proteins. Briefly, IL-17RB proteins from human, mouse, cynomolgus or rhesus monkey (R&D systems, Minneapolis, MN) were diluted to 2.5 μg/ml in PBS and 50 μl of IL-17RB proteins were added to each well of ELISA strip. The strips were sealed with parafilm and incubated at 4° C. overnight for coating.
(§2) On the next day, strips were washed thrice with washing buffer (0.05% Tween 20 in PBS) and blocked with 100 μl per well with blocking buffer (3% BSA in PBS) for 2 hours RT before serially diluted SM17 (at a final concentration of 10, 2, 0.4, 0.08, 0.016, 0.0032, and 0.00064 μg/ml, respectively) was added.

[4] = target: T1, IL-17RB; test: ELISA, SM17 binding to coated IL-17RB protein (human); conditions: two wells
Method: as §1, §2

[5] = target: T3, IL-33 (Homo sapiens, UniProt O95760); test: Bio-Layer Interferometry (Octet), binding kinetics of bsBp to human IL-33
T3 construct: purchased R&D systems
T3 sequence (O95760 95-270): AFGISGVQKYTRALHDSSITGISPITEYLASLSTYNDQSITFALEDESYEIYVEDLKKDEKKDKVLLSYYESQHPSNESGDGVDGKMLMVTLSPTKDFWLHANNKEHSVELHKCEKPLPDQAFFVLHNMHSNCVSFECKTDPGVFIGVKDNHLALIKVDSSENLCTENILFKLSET
Method: The binding affinity of bsBp to the targeted alarmins was determined using a bio-Layer Interferometry analysis (Octet ReD96 system, Sartorius). bsBp or SM17 (20 μg/mL) was immobilized on biosensors via binding to anti-human Fab CH1 region; serially diluted human IL33 and TSLP (158.7 nM, 79.4 nM, 39.7 nM) (R&D systems) were added to plot the association and dissociation curve according to the manufacturer's specification. Biosensors immobilized with irrelevant antibody (SM03, anti-human CD22 chimeric IgG1 antibody, SinoMab BioScience Limited, 20 μg/mL) were used as control reference.

Substance: SM17: humanized anti-IL17RB monoclonal antibody, human IgG4 isotype; HC SEQ ID NO: 32, LC SEQ ID NO: 33
- Ka [1]: 222000 M⁻¹ s⁻¹ and 183000 M⁻¹ s⁻¹
- Intensity of specific antigen binding, IL-17RB coated on ELISA strips [2]: +++
- OD 450 nm Absorption, rhesus IL17RB ([3]; SM17 0.016 μg/mL): 0.27 and 0.17
- OD 450 nm Absorption, rhesus IL17RB ([3]; SM17 0.08 μg/mL): 0.51 and 0.58
- OD 450 nm Absorption, rhesus IL17RB ([3]; SM17 0.4 μg/mL): 1.12 and 1.17
- OD 450 nm Absorption, rhesus IL17RB ([3]; SM17 2 μg/mL): 1.40 and 1.45
- OD 450 nm Absorption, rhesus IL17RB ([3]; SM17 10 μg/mL): 1.57 and 1.59
- OD 450 nm Absorption, human IL17RB ([4]; SM17 0.016 μg/mL): 0.17
- OD 450 nm Absorption, human IL17RB ([4]; SM17 0.08 μg/mL): 0.58 and 0.44
- OD 450 nm Absorption, human IL17RB ([4]; SM17 0.4 μg/mL): 1.10 and 1.14
- OD 450 nm Absorption, human IL17RB ([4]; SM17 2 μg/mL): 1.74 and 1.61
- OD 450 nm Absorption, human IL17RB ([4]; SM17 10 μg/mL): 1.82 and 1.88
- Kd [5]: 659 µM
- Kdis [5]: 17.9 s⁻¹
- Ka ([5]; bsBp or SM17 immobilized at 20 μg/mL): 27200 M⁻¹ s⁻¹
